± gives the uncertainty stated by the source.
Experiment: amyloid nucleation score (Sup35N fusion, yeast selection) (log enrichment); library NNK2; higher = more nucleation; inactive = no reads after selection
Procedure, shortened: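 Yeast lacking psi expressed peptides of 20 random codons fused to Sup35N, received 100 μM copper sulfate for 24 hours, and were then grown for 7 days at 30°C on medium lacking adenine and uracil. Illumina sequencing of input and output plasmid inserts provided the reads. Nucleation scores are DiMSum log enrichments of output over input, centred on the mode of non-aggregating sequences. Any sequence with under 100 input reads was excluded.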

Compared with CCAQWSNFACSV, SIFFC is lower in amyloid nucleation score: 5.392 ± 0.038 for the first, 2.09 ± 0.09 for the second.

First: LIFRAVWVVMSHHLTG
Second: NVFTNTLVN
The amyloid nucleation score of the first is lower: 0.039 ± 0.42 for the first, 8.667 ± 0.081 for the second.

Going from ILIRLLGSRKQSWNYEIKVL to DLWGVI, the amyloid nucleation score rises from -0.645 ± 0.37 to 8.81 ± 0.026.

First: AKCPIRNRSLSCIQWSGGAK
Second: NVSGMFISMLIFRIMHHGQC
The amyloid nucleation score of the first is lower: 0.398 ± 0.27 for the first, 5.11 ± 0.055 for the second.

SFLTYKARTMSSKLVKSIML and PVFCTLYHAAWSHRIRISVF are within error of each other in amyloid nucleation score: -0.563 ± 0.76 for the first, -1.57 ± 0.54 for the second.

First: SINIYNFAQVSAFYCGLVEC
Second: KYMCSLMEATFLYNGSALRC
The amyloid nucleation score of the first is higher: 5.45 ± 0.078 for the first, -1.6 ± 1.1 for the second.

Compared with RIDRFLFASGHEGYAVN, FCSHMLARTYLKCGREDR is lower in amyloid nucleation score: 4.507 ± 0.033 for the first, -0.337 ± 1 for the second.

RRGIASILGHYRGTKMTGFD and GCHVRSFK are within error of each other in amyloid nucleation score: 0.135 ± 0.56 for the first, 0.158 ± 0.31 for the second.

Compared with TVFSK, RFDPNTAWNLTFSSSRCVAG is higher in amyloid nucleation score: -0.998 ± 0.76 for the first, 0.91 ± 0.27 for the second.

Compared with WMLWANIDPGDAPYREASAG, QFVSDALVWGGITSMGWLMR is lower in amyloid nucleation score: 4.06 ± 0.05 for the first, 0.756 ± 0.4 for the second.

Compared with WFRYNCHDFSLTNPWRHHNL, VAWITLMIPHIYFQSGILWD is lower in amyloid nucleation score: 0.507 ± 0.52 for the first, -1 ± 0.25 for the second.

First: RIRSCTLMWT
Second: NKCEIKLRKWQSSP
The amyloid nucleation score of the first is higher: 0.807 ± 0.22 for the first, -0.337 ± 0.34 for the second.

Going from HVFFHFRDVTSGL to TSRML, the amyloid nucleation score falls from 4.64 ± 0.065 to 0.67 ± 0.39.

First: WCGYCLTFLFPAQKQEAVLR
Second: ETHVRMWAHFWQTTLRCHKS
The amyloid nucleation score of the first is lower: 0.218 ± 0.35 for the first, 1.72 ± 0.16 for the second.

PSSYGWCMLFLVWDIQSTL and ELLGG are within error of each other in amyloid nucleation score: -0.829 ± 1 for the first, -0.343 ± 1.1 for the second.

YIECFTSMQLP and SAFSFTSLSKYGLFSFCVVR are within error of each other in amyloid nucleation score: -0.397 ± 0.79 for the first, -0.274 ± 0.63 for the second.

First: LECCG
Second: LCISCNVGLGSIKVRNNAFA
The amyloid nucleation score of the first is lower: -0.838 ± 0.55 for the first, 6.12 ± 0.042 for the second.

Going from SHSVKVMFNGLRVRL to LFFTFSKKFAR, the amyloid nucleation score rises from -0.216 ± 0.63 to 3.48 ± 0.068.

First: CTSDVGGSQERVGSIQANSN
Second: TILDIVLIIPAKVVHKEERR
The amyloid nucleation score of the first is higher: 2.48 ± 0.2 for the first, -0.093 ± 0.41 for the second.

Compared with CMARPMSVLECHSCWEDALG, LYFRVNDEGVHFTCEGQKKE is higher in amyloid nucleation score: 0.221 ± 0.31 for the first, 1.46 ± 0.17 for the second.

Compared with PFDFAGA, TGMQMFMVVWLGQLDRSDTI is lower in amyloid nucleation score: 2.91 ± 0.087 for the first, 1.07 ± 0.28 for the second.

Going from YKMILGCVVRVGYRILNCIR to VFWGM, the amyloid nucleation score falls from 0.295 ± 0.5 to -1.35 ± 0.49.

First: LSLLSFGISASFVV
Second: NSCSWDSIITLVVQWLARQH
The amyloid nucleation score of the first is lower: -1.18 ± 0.41 for the first, 6.342 ± 0.039 for the second.

ASASSVIAMRNRMGGLNRFC and CLAPFHYDQYCKWESDSVSR are within error of each other in amyloid nucleation score: -0.302 ± 0.24 for the first, -0.438 ± 0.44 for the second.

LQRSHSWTQLPLCTSRLRLL and RSSWPTLKQGCSKSRQIWRA are within error of each other in amyloid nucleation score: 0.294 ± 1.1 for the first, 0.182 ± 0.3 for the second.

First: SEFPIVQLCIAWDKLCKHLY
Second: LVCNPYMRDTARSESLGSAW
The amyloid nucleation score of the first is lower: -0.179 ± 0.26 for the first, 0.923 ± 0.66 for the second.

First: MNGCTTANGIVDTRSNAFTC
Second: RRSNLGNWFDV
The amyloid nucleation score of the first is higher: 1.87 ± 0.097 for the first, 0.285 ± 1 for the second.

LVWGVP and LMYCI are within error of each other in amyloid nucleation score: -0.945 ± 0.76 for the first, -0.211 ± 0.76 for the second.

ADYLRDSFQRWLMEVGLDRR and VSNPSGVREPATTGGQSLAI are within error of each other in amyloid nucleation score: 1.44 ± 0.26 for the first, 0.966 ± 0.47 for the second.

Going from RGSNVGMRDLAYRPHSGQMW to HRVQSGLCSKNSRE, the amyloid nucleation score rises from 1.68 ± 0.56 to 2.96 ± 0.15.

SSFVNRWCEHYNGVVVSWLL and TISLDM are within error of each other in amyloid nucleation score: 0.236 ± 0.17 for the first, -0.033 ± 0.25 for the second.

Work on LTGWMFISWSLTIPRPPTIE yielded an amyloid nucleation score of -0.849 ± 1.1.

For SIKNHRDREILAMPGVSRSA, the amyloid nucleation score was “inactive”.
For NVLQLDPFFAYSVRCILGSE, the amyloid nucleation score was “inactive”.
In the case of VGFHEDNMEVR, the amyloid nucleation score is reported as “inactive”.
For LLDINSCRFDMVISDMDNCP, the amyloid nucleation score was “inactive”.
In the case of TNSALGSMVYELGRPLVWFF, the amyloid nucleation score is reported as “inactive”.
With VEGLQ the amyloid nucleation score was “inactive”.
With VTRSVSPHSSPYAFYYFNIS the amyloid nucleation score was “inactive”.
For RTIAVSQWLASHGTVLVWPD, the amyloid nucleation score was “inactive”.

From the supplement of paper PMC12042874
